According to patent US20090098549, “SELEX AND PHOTOSELEX” (SOMALOGIC, INC., published 2009):

Biological target: beta-catenin (UniProt P35222 P35222:2-781)
Assay: photocrosslink returned to full activity without 3' fixed region
Conditions: tags: NHS-PEO4-biotin or His tag (assay used TALON beads); label: 32P
Protocol: Radiolabeled aptamer (100 pM) was denatured and renatured as described above, with, or without a 100-fold excess of unlabeled 3′ primer. The samples were incubated with or without 10 nM β-catenin protein in SB17 for 30 minutes at 37° C., after which complexes were crosslinked by irradiation with an OAI Hg lamp (Optical Associates, Inc. model 0131-0003-01, 500 W, with 310 nm mirror set) for 10 minutes at 37° C. Samples were mixed with 2× formamide loading buffer, heated for 10 minutes at 70° C., and loaded on a 10% polyacrylamide TBE-urea gel. Phosphorimages were collected with a FUJI FLA-3000 FIG. 7A. Crosslink activity was determined for each sample by quantifying the free aptamer and aptamer:protein signals with FUJI ImageGauge image analysis software and calculating the percent of total DNA crosslinked with target protein and subtracting the percent crosslinked without protein.

Chain of beta-catenin (P35222 2-781, one chain of several): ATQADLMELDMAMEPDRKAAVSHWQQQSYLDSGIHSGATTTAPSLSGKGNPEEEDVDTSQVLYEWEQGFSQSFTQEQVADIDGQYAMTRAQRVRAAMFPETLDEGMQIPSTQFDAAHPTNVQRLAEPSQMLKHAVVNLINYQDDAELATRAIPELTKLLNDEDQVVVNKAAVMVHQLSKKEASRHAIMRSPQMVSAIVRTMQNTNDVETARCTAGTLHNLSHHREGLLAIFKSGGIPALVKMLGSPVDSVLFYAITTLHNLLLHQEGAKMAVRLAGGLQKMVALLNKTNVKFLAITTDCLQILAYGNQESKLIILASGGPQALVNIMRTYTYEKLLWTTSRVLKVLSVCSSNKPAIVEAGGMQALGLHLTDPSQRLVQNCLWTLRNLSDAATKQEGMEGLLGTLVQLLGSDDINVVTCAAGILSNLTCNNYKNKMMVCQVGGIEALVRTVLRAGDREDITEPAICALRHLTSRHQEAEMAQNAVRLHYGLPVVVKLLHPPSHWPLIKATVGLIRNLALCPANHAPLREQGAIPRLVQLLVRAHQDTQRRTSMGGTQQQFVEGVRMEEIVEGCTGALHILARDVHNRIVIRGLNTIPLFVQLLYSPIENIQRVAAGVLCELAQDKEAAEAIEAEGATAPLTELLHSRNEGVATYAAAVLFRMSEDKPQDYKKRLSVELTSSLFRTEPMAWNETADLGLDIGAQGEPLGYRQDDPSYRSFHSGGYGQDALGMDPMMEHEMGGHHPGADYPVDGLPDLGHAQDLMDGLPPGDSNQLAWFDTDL

B1: 2092-68-6 (ssDNA)
DNA: ATATATATGAGTGACCGTCTGCCTGAGCUGCGGUUGAUGAUAUACUUCGCUUUCACUGCUCACAC
modifications: X=ANA-dT, Z=BzdU
  binding result: binds
